Broadly, the Kd is the equilibrium constant for the complex coming apart. A high value points to lower affinity. One may read the stoichiometry N as the number of molecules, sites or subunits per partner or assembly. As a reminder, the ΔTm is the shift of the melting midpoint relative to a reference.

The target in assay [1] is KRas wild-type (UniProt P01116). In words: ITC.
For assay [2], the target named is KRas G12D, site-specifically mono-biotinylated by sortase-mediated ligation (GDP-loaded) (UniProt P01116). The experiment in a line: SPR. Background: SPR reads the build-up and loss of mass on a sensor chip optically.
Assay [3] concerns the target KRas G12D (GDP-loaded) (UniProt P01116). The experiment in a line: ITC. For orientation: Isothermal titration calorimetry measures the heat released or taken up as one component is titrated into another.
Assay [4] has the same target. In words: thermal shift assay.

In assay [1], “Raf-RBD (from UniProt P04049 56-131) (domain or fragment)” showed a dissociation constant (Kd) of 6 nM and a stoichiometry N of 0.554.
Consider cyclorasin 9A5 (peptide), for which the Kd in assay [2] is greater than 1000 nM.
“SAH-SOS1A (from UniProt Q07889 929-944) (peptide)” registered a Kd in assay [2] greater than 1000 nM.
In the case of KRpep-2d (peptide), in assay [3], the equilibrium dissociation constant (Kd) was determined as 21 nM and the stoichiometry N was found to be 0.625. The shift in melting temperature (ΔTm) in assay [4] came out at 11.5 °C.

These data come from article doi:10.1101/636563.
